From US10772928B2, “Modulation and detection of a neuronal alternative splicing regulatory network for treatment and diagnosis of neurological disorders” (The Governing Council of the University of Toronto, priority 2014, dated 2020)

T1: nSR100 (Mus musculus, UniProt Q8BKA3)
T1 construct: host or cells: mouse N2A cells
T1 sequence (Q8BKA3 1-608): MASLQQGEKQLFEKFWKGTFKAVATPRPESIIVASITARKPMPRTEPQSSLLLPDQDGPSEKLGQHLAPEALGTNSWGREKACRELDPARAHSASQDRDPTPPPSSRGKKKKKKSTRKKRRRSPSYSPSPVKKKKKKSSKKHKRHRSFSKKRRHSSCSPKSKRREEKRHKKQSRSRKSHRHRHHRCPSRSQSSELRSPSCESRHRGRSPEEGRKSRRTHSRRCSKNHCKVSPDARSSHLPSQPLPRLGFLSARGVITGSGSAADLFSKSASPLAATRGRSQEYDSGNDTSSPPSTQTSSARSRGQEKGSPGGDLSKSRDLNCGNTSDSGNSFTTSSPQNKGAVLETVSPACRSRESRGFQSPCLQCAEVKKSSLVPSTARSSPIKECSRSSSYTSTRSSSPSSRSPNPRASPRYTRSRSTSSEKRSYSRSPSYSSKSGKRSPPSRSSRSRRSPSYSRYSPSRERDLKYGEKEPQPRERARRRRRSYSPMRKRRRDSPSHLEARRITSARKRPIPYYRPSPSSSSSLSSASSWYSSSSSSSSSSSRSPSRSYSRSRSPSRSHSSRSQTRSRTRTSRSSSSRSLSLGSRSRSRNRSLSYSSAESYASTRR

B1: Sf3a2 (protein, UniProt Q62203 1-475, looked up)
Splicing factor 3A subunit 2: MDFQHRPGGKTGSGGVASSSESNRDRRERLRQLALETIDINKDPYFMKNHLGSYECKLCLTLHNNEGSYLAHTQGKKHQTNLARRAAKEAKEAPAQPAPEQVKVEVKKFVKIGRPGYKVTKQRDTEMGQQSLLFQIDYPEIAEGIMPRHRFMSAYEQRIEPPDRRWQYLLMAAEPYETIAFKVPSREIDKAEGKFFFLQFHFKMEKPPAPPSLPAGPPGVKRPPPPLMNGLPPRPPLPDALPPPPPGGLPLPPMPPTGPAPSGPPGPPQMPPPAPGVHPPAPVVHPPTSGVHPPAPGVHPPAPVVHPPTSGVHPPAPGVHPPTPGVHPPAPGVHPPAPGVHPPAPGVHPPTPGVHPPAPGVHPPAPGVHPPAPGVHPPPSAGVHPQAPGVHPPAPAVHPQAPGVHPPAPGIHPQAPGVHPQPPPGVHPAAPGVHPQPPGVHPSNPGVHPAPMPPMLRPPLPSDGPGNMPPPPPGN
B2: Luc7l (protein, UniProt Q9CYI4 1-371, looked up)
Putative RNA-binding protein …: MSAQAQMRALLDQLMGTARDGDETRQRVKFTDDRVCKSHLLDCCPHDILAGTRMDLGECTKIHDLALRADYEIASKERDLFFELDAMDHLESFIAECDRRTELAKKRLAETQEEISAEVSAKAEKVHELNEEIGKLLAKAEQLGAEGNVDESQKILMEVEKVRAKKKEAEEEYRNSMPASSFQQQKLRVCEVCSAYLGLHDNDRRLADHFGGKLHLGFIQIREKLDQLRKTVAEKQEKRNQDRLRRREEREREERLGRRSGSRTRDRRRSRSRDRRRRRSRSTSRERRKFSRSRSRDRYRRHRSRSRSHSRGHRRASRDRSTKYKFSRERSLREESWEYGRNERGPTDWRLENSNGKTASRRSEEKEAGEI
B3: Wbp11 (protein, UniProt Q923D5 1-641, looked up)
WW domain-binding protein 11: MGRRSTSSTKSGKFMNPTDQARKEARKRELKKNKKQRMMVRAAVLKMKDPKQIIRDMEKLDEMEFNPVQQPQLNEKVLKDKRKKLRETFERILRLYEKENPDIYKELRKLEVEYEQKRAQLSQYFDAVKNAQHVEVESIPLPDMPHAPSNILIQDIPLPGAQPPSILKKTSAYGPPARAVSILPLLGHGVPRLPPGRKPPGPPPGPPPPQVLQMYGRKVGFALDLPPRRRDEDMLYSPELAQRGHDDDMSSTSEDDGYPEDMDQDKHDDSTEDSDTDRSDAESDGDEFGHREDSERDNTEEKKSGLSVRFADMPGKSRKKKKNMKELTPLQAMMLRMAGQEIPEEGREVEEFSEEEDADDSDDSEAEKQSQKQHKDDGHSDSTAAASSQQQAPPQSAPASQIQAPPMPGPPPLGPPPAPPLRPPGPPTGLPPGPPPGAPPFLRPPGMPGIRGPLPRLLPPGPPPGRPPGPPPGPPPGLPPGPPPRGPPPRLPPPAPPGIPPPRPGMMRPPLVPPLGPAPPGLFPPAPLPNPGVLSAPPSLIQRPKADDASAATIEKKATATISAKPQITNPKAEVTRFVPTALRVRRENKGATAVPQRRSEDDSAVPVAKAAPRSGPSVAVSVQTKDDVYEAFMKEMEGLL
B4: Bcas2 (protein, UniProt Q9D287 2-225, looked up)
Pre-mRNA-splicing factor SPF27: AGTGLVAGEVVVDALPYFDQGYEAPGVREAAAALVEEETRRYRPTKNYLSYLTAPDYSAFETDIMRNEFERLAARQPIELLSMKRYELPAPSSGQKNDITAWQECVNNSMAQLEHQAVRIENLELMSQHGCNAWKVYNENLVHMIEHAQKELQKLRKHIQDLNWQRKNMQLTAGSKLREMESNWVSLVSKNYEIERTIVQLENEIYQIKQQHGEANKENIRQDF
B5: Ddx6 (protein, UniProt P54823 1-483, looked up)
Probable ATP-dependent RNA …: MSTARTENPVIMGLSSQNGQLRGPVKASAGPGGGGTQPQPQLNQLKNTSTINNGTPQQAQSMAATIKPGDDWKKTLKLPPKDLRIKTSDVTSTKGNEFEDYCLKRELLMGIFEMGWEKPSPIQEESIPIALSGRDILARAKNGTGKSGAYLIPLLERLDLKKDNIQAMVIVPTRELALQVSQICIQVSKHMGGAKVMATTGGTNLRDDIMRLDDTVHVVIATPGRILDLIKKGVAKVDHVQMIVLDEADKLLSQDFVQIMEDIILTLPKNRQILLYSATFPLSVQKFMNSHLQKPYEINLMEELTLKGVTQYYAYVTERQKVHCLNTLFSRLQINQSIIFCNSSQRVELLAKKISQLGYSCFYIHAKMRQEHRNRVFHDFRNGLCRNLVCTDLFTRGIDIQAVNVVINFDFPKLAETYLHRIGRSGRFGHLGLAINLITYDDRFNLKSIEEQLGTEIKPIPSNIDKSLYVAEYHSEPAEDEKP
B6: Rbmx2 (protein, UniProt Q8R0F5 1-326, looked up)
RNA-binding motif protein, …: MNPLTKVKLINELNEREVQLGVAEKVSWHSEYKHSAWIFVGGLPYELTEGDIICVFSQYGEIVNINLVRDKKTGKSKGFCFLCYEDQRSTVLAVDNFNGIKIKGRTIRVDHVSNYRAPQESEDVDDVTRELQEKGCGVKTPPSSPPEVSEDEDAKLTKKHKKDKKEKKKRKKEKTEGQAQAEQPSCSRSATVKEKKDERASRKHSSKTSERAQKSEHRESKKSHSGSPDGRSSYHARAEDPECKARKEKPKHEHKSASRREAEEKSRERERGRSSGTHSGRHRGHSDGRSHRSRSRSRSPDKSHRHKKYRHSRERDSYHGSDRRHH
B7: Sf3b2 (protein, UniProt Q3UJB0 1-878, looked up)
Splicing factor 3B subunit 2: MAAEHPEPPKGELQLPPPPPPGHYGAWAAQELQARLAEIGAPIQGSREELVERLQTYTRQTGIVLNRPVLRGEDGDKAAPPPMSAQLSGIPMPPPPMGLPPLQPPPPPPPPPPGLGLGFPMAHPPNLGPPPPLRVGEPVALSEEERLKLAQQQAALLMQQEERAKQAAVLMEQERQQEIAKMGTAVPRPPQDMGQLGVRTPLGPRVAAPVGPVVPTPTVLPMGAPVPRPRGPPPPPGDENREMDDPSVGPKIPQALEKILQLKESRQEEMNSQQEEEEMETDTRSSLGQSASETEEDTVSISKKEKNRKRRNRKKKKKPQRVRAASSESSGDREKDSGRSRGSDPPAADVEIEYVTEEPEIYEPNFIFFKRIFEAFKLTDDVKKEKEKEPEKLDKMESSAVPKKKGFEEEHKDSDDDSSDDEQEKKPEAPKLSKKKLRRMNRFTVAELKQLVARPDVVEMHDVTAQDPKLLVHLKATRNSVPVPRHWCFKRKYLQGKRGIEKPPFELPDFIKRTGIQEMREALQEKEEQKTMKSKMREKVRPKMGKIDIDYQKLHDAFFKWQTKPKLTIHGDLYYEGKEFETRLKEKKPGDLSDELRISLGMPVGPNAHKVPPPWLIAMQRYGPPPSYPNLKIPGLNSPIPESCSFGYHAGGWGKPPVDETGKPLYGDVFGTNAAEFQTKTEEEEIDRTPWGELEPSDEESSEEEEEEESDEDKPDETGFITPADSGLITPGGFSSVPAGMETPELIELRKKKIEEAMDGSETPQLFTVLPEKRTATVGGAMMGSTHIYDMSTVMSRKGPAPELQGVEVALAPEELELDPMAMTQKYEEHVREQQAQVEKEDFSDMVAEHAAKQKQKKRKAQPQDSRGGSKKYKEFKF

Target: T1, nSR100
Assay: AP-MS nSR100 interaction partners from mouse N2A cells (Table 5)
Type: binding
Settings: for AvgP (average of the SAINT scores) / MaxP (maximal SAINT score): bait Srrm4; for FoldChange between the prey Avg spectra of the bait and control purifications: bait Srrm4, 0.1 added to prevent division by 0; for AvgSpec (average number of spectra per replicate): bait Srrm4, 2 replicates; for Spectra (number of spectra for the prey in the purification of the bait): AP-MS; for SpecSum: bait Srrm4, sum of spectra over 2 replicates
[1] = bait Srrm4, biological replicate 1 (first number of the cell)
[2] = bait Srrm4, biological replicate 2 (second number of the cell)

Description: By applying affinity purification coupled to mass-spectrometry (AP-MS), several interaction nSR100 partner proteins were detected that provide insight into mechanisms of post-translational regulation of nSR100 levels.

Molecule	AvgP (average of the SAINT scores)	MaxP (maximal SAINT score)	FoldChange between the prey Avg spectra of the bait and control purifications	AvgSpec (average number of spectra per replicate)	Spectra (number of spectra for the prey in the purification of the bait) [1]	Spectra (number of spectra for the prey in the purification of the bait) [2]	SpecSum
B1	0.97	1	30	3	2	4	6
B2	0.95	0.99	3.17	19	18	20	38
B3	0.97	0.99	25	2.5	2	3	5
B4	0.97	0.99	25	2.5	2	3	5
B5	0.97	1	30	3	2	4	6
B6	0.96	0.98	9	4.5	4	5	9
B7	0.96	0.96	3.08	20	20|20	20|20	40
